Measured values from patent US20180334510A1 (BRANDEIS UNIVERSITY, published 2018).
Changes are numbered by the printed parent chain. Read-outs that look alike come from different tables or passages of the source.

Assays:
Y199K = molecular target: T1, Y199K; assay: yeast display, single point with Y199K Aurora A, mean fluorescence
T1 construct: also called Y199K mutant Aurora A; Y199K Aurora A hotspot mutant
T1 chain: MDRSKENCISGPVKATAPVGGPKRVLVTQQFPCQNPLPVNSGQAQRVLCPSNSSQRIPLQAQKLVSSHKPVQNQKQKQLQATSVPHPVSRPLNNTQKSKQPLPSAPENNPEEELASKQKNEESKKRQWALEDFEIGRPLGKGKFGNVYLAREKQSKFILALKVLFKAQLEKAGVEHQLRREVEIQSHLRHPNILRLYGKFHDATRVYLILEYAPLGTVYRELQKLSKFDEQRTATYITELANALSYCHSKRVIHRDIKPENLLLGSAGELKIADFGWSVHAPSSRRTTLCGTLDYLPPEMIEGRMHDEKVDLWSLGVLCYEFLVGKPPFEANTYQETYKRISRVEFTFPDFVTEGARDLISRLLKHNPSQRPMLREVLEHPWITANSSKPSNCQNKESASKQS

Aurora A kinase [1] = molecular target: T2, Aurora A kinase (human, UniProt O14965 122-403, limits assumed); assay: yeast display titration of the clone with wild type Aurora A, mean fluorescence
T2 construct: also called AurA; deP AurA
T2 sequence: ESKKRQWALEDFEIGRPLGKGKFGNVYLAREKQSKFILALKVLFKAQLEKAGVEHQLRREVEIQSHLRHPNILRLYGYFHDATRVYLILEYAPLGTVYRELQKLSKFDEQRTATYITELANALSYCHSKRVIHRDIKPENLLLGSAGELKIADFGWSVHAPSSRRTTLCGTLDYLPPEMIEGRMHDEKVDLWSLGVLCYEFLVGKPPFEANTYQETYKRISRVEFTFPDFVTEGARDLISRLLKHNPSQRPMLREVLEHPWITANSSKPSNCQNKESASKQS

Aurora A kinase [2] = molecular target: T2, Aurora A kinase; assay: isothermal titration calorimetry with dephosphorylated Aurora A (deP AurA); parameters: dS: unit not given here
Aurora A kinase [3] = molecular target: T2, Aurora A kinase; assay: as above
Aurora A kinase [4] = molecular target: T2, Aurora A kinase; assay: as above; remark: listed apart in the source
Aurora A kinase [5] = molecular target: T2, Aurora A kinase; assay: as above; parameters: dS: unit not given here; remark: listed apart in the source
Aurora A kinase [6] = molecular target: T2, Aurora A kinase; assay: isothermal titration calorimetry; Mb60 alone, not the sGFP fusion (FIG. 6C)
Aurora A kinase [7] = molecular target: T2, Aurora A kinase; assay: isothermal titration calorimetry
Aurora A kinase [8] = molecular target: T2, Aurora A kinase; assay: isothermal titration calorimetry with dephosphorylated Aurora A (deP AurA); remark: listed apart in the source
Y199H = molecular target: T3, Y199H; assay: yeast display, single point with Y199H Aurora A, mean fluorescence
T3 construct: also called Y199H mutant Aurora A; Y199H Aurora A hotspot mutant
T3 chain: T1 chain with K199H

Aurora A kinase [9] = molecular target: T2, Aurora A kinase; assay: isothermal titration calorimetry with dephosphorylated Aurora A (deP AurA); remark: listed apart in the source
Aurora A kinase [10] = molecular target: T2, Aurora A kinase; assay: method not stated; told in the isothermal titration calorimetry paragraph

B1: monobody Mb56 (designed binder)
chain: SVSSVPTKLEVVAATPTSLLISWDAMSDWYYWVDYYRITYGETGGNSPVQEFTVPGSYSTATISGLKPGVDYTITVYASDDVWGDYSPISINYRT
notes: Monobody on a fibronectin type III (FN3) scaffold; also called AuroraA_56
- binding result (Y199K): no binding (tested: 2000 (axis unit not printed))
- Kd (Aurora A kinase [1]): 60 nM
- Kd (Aurora A kinase [2]): 163 nM
- dH (Aurora A kinase [2]): -10.1 kcal/mol
- dS (Aurora A kinase [2]): -29.1
- n (Aurora A kinase [2]): 0.94

B2: monobody Mb51 (designed binder)
chain: SVSSVPTKLEVVAATPTSLLISWDAKPMSYEPVYYYRITYGETGGNSPVQEFTVPGYYSTATISGLKPGVDYTITVYADSMSSYYYSPISINYRT
notes: Monobody on a fibronectin type III (FN3) scaffold; also called AuroraA_51
- binding result (Y199K): no binding (tested: 2000 (axis unit not printed))
- Kd (Aurora A kinase [3]): 27.4 nM
- dH (Aurora A kinase [3]): -9.11 kcal/mol
- dS (Aurora A kinase [3]): -16.9 J/mol*K
- n (Aurora A kinase [3]): 0.93
- Kd (Aurora A kinase [1]): 6 nM

B3: monobody Mb44 (designed binder)
chain: SVSSVPTKLEVVAATPTSLLISWDAPAVTVDFYVITYGETGGYSYPWQEFEVPGSKSTATISGLKPGVDYTITVYADYGQYFYSPISINYRT
notes: Monobody on a fibronectin type III (FN3) scaffold; also called AuroraA_44
- Kd (Aurora A kinase [4]): 2600 nM
- dH (Aurora A kinase [4]): -13.7 kcal/mol
- dS (Aurora A kinase [4]): -84.9 J/mol*K
- n (Aurora A kinase [4]): 1.06
- Kd (Aurora A kinase [1]): 42 nM

B4: monobody Mb60 (designed binder)
chain: SVSSVPTKLEVVAATPTSLLISWDAPAVTVVHYVITYGETGGNSPVQEFTVPGSKSTATISGLKPGVDYTITVYAIDFYWGSYSPISINYRT
notes: Monobody on a fibronectin type III (FN3) scaffold; also called AuroraA_60
- Kd (Aurora A kinase [5]): 1200 nM
- dH (Aurora A kinase [5]): -31.9 kcal/mol
- dS (Aurora A kinase [5]): -334
- n (Aurora A kinase [5]): 0.92
- Kd (Aurora A kinase [6]): ~1000 nM
- binding result (Y199K): no binding (tested: 2000 (axis unit not printed))
- Kd (Aurora A kinase [1]): 25 nM

B5: monobody Mb60 fused to supercharged GFP (designed binder)
chain: B4 chain
notes: also called sGFP-Mb60; not shown: supercharged green fluorescent protein
- Kd (Aurora A kinase [7]): ~9900 nM

B6: monobody Mb54 (designed binder)
chain: SVSSVPTKLEVVAATPTSLLISWDAQTYQMYDYVSYYRITYGETGGNSPVQEFTVPGYYSTATISGLKPGVDYTITVYAEGYYSSYSPISINYRT
notes: Monobody on a fibronectin type III (FN3) scaffold; also called AuroraA_54
- Kd (Aurora A kinase [8]): 175000 nM
- dH (Aurora A kinase [8]): -24.2 kcal/mol
- dS (Aurora A kinase [8]): -210 J/mol*K
- n (Aurora A kinase [8]): 0.92
- binding result (Y199H): no binding (tested: 2000 (axis unit not printed))
- Kd (Aurora A kinase [1]): 81 nM

B7: monobody Mb2 (designed binder)
chain: SVSSVPTKLEVVAATPTSLLISWDAFGHQYEPVYYYRITYGETGGNSPVQEFTVPGYYSTATISGLKPGVDYTITVYAWYVDGSYSSPISINYRT
notes: Monobody on a fibronectin type III (FN3) scaffold; also called AuroraA_2
- Kd (Aurora A kinase [9]): 8.7 nM
- dH (Aurora A kinase [9]): -16.1 kcal/mol
- dS (Aurora A kinase [9]): -71.6 J/mol*K
- n (Aurora A kinase [9]): 1.02
- binding result (Y199H): no binding (tested: 2000 (axis unit not printed))
- Kd (Aurora A kinase [1]): 16.7 nM

Binder: MSQVKSSYSYDAPSDFINFSSLDDEGDTQNIDSWFEEKANLENKL (other, also called TPX2 polypeptide) [TPX2]
- Kd (Aurora A kinase [10]): 50000 nM
